This data set has as its target T1, MleR (Streptococcus mutans UA159?) (UniProt Q8DWC9).
T1 sequence: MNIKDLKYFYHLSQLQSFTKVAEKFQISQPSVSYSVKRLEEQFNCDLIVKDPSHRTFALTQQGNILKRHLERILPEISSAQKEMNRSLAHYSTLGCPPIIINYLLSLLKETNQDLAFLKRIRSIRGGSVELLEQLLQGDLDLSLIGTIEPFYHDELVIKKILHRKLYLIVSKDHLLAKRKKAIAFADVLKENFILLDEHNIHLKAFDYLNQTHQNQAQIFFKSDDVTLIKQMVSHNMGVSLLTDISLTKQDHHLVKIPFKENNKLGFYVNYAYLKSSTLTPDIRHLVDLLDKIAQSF
In words: EMSA. The conditions noted are these: 20 mM Tris pH 7.5, 100 mM KCl, 2 mM EDTA, 10% glycerol, ~100 ng MleR, equal amount of competitor DNA (EP10/11 at 75 ng/ul), 20 min ambient temperature; 4.5% ….

In publication PMC2834670 one finds binding data, which are given here for one sequence.

Regarding “GGTATCTTTGCGGCTATGGATATCACAGGTGAAAAATTGACTGATCAAGTCTATCTCTGTTACGGTGGCGGTACAGCAGGTGCGGGTATTGCCTCTCGTGTCTTGCGTGAAA (double strand) [internal mleS fragment (137qF/R)]”, the binding result is on record as “no binding”.
